The source of these data is US20120164153A1 (GOVERNMENT OF THE UNITED STATES AS REPRESENTED BY THE …, published 2012).

In experiment [1] the target is Zaire ebolavirus (ZEBOV) GP (Zaire ebolavirus) (UniProt Q05320). Nature of the experiment: cell-based or functional assay.
The target in experiment [2] is T1, Zaire ebolavirus (ZEBOV) GP (Zaire ebolavirus, UniProt Q05320 33-676).
T1 construct: whole, on cells; also called Zaire GP
T1 sequence: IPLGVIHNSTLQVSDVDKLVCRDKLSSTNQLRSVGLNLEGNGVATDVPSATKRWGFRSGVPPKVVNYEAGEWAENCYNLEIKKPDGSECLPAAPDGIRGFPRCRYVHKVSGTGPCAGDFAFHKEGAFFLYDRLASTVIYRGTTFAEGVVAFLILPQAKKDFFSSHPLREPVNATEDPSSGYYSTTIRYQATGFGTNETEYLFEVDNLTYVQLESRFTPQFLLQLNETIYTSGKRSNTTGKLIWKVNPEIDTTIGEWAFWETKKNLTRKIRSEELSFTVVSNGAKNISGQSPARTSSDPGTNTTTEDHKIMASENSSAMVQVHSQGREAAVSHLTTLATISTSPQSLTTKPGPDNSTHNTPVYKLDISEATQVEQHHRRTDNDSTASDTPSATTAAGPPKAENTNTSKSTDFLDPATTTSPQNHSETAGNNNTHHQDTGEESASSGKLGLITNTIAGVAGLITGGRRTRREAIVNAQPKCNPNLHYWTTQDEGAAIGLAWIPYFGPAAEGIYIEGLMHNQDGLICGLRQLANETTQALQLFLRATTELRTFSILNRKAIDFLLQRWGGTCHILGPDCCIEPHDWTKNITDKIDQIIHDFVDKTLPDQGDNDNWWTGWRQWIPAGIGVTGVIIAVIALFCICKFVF
Nature of the experiment: flow cytometry on infected Vero cells (FIG. 15).

As for monoclonal antibody KZ52, in experiment [1], the neutralization of Zaire GP-pseudotyped VSV on 293 cells was 90%.

B1: monoclonal antibody 16F6 (murine IgG1) (antibody, V domains shown)
VH: EVQLVESGGGLVTPGGSLKLSCAASGFAFNYYDMFWVRQNTEKRLEWVAYINSGGGNTYYPDTVKGRFTISRDNAKKTLFLQMSSLRSEDTAMYYCARQLYGNSFFDYWGQGTSLTVSA
VL: DIVMTQSHKFMSTSVGDRVTITCKASQDVTTAVAWYQQKPGHSPKLLIYWASTRHTGVPDRFTGSGSGTDFTLTLNSVQAEDLALYYCQQHYSTPLTFGAGTKLELK
notes: also called mAb 16F6; MAb 16F6
For the molecule B1, the binding result in experiment [2] is “no binding”.
